Reference: PMC4761994, “Unraveling and engineering the production of 23,24-bisnorcholenic steroids in sterol metabolism” (Scientific Reports, 2016)

Key:
Hsd4AMN = target: T1, Hsd4AMN (Mycolicibacterium neoaurum, UniProt A0A0H3W613); assay: NADH oxidation at […] nm, Michaelis-Menten fit; assay type: biochemical; details: NADH 125 μM; 125 mM Tris-HCl pH 8.0; 30 °C
T1 construct: gene hsd4A

[1] = tested on: CC(O)CC(=O)SCCNC(=O)CCNC(=O)[C@H](O)C(C)(C)COP(=O)(O)OP(=O)(O)OC[C@H]1O[C@@H](n2cnc3c(N)ncnc32)[C@H](O)[C@@H]1OP(=O)(O)O; assay: purified protein; assay type: biochemical, Mycolicibacterium neoaurum; details: NAD+ 125 μM, 125 mM glycine-NaOH pH 9.0, 30 °C, DL mixture of substrate, pH 9.0
[2] = tested on: C[C@]12CC[C@H]3[C@@H](CCC4=CC(=O)C=C[C@@]43C)[C@@H]1CC[C@@H]2O; assay: purified protein; assay type: biochemical, Mycolicibacterium neoaurum; details: NAD+ 100 μM, 100 mM Tris-HCl pH 7.8, 30 °C, pH 7.8
[3] = tested on: C[C@]12CC[C@H]3[C@@H](CCC4=CC(=O)CC[C@@]43C)[C@@H]1CC[C@@H]2O; assay: purified protein; assay type: biochemical, Mycolicibacterium neoaurum; details: NAD+ 100 μM, 100 mM Tris-HCl pH 7.8, 30 °C, pH 7.8

Km (Hsd4AMN) [µM]	Compound	Km [1] [µM]	Vmax [1] [µmol/min/mg]	Km [2] [µM]	Vmax [2] [µmol/min/mg]	Km [3] [µM]	Vmax [3] [µmol/min/mg]
101 ± 27	CC(=O)CC(=O)SCCNC(=O)CCNC(=O)[C@H](O)C(C)(C)COP(=O)(O)OP(=O)(O)OC[C@H]1O[C@@H](n2cnc3c(N)ncnc32)[C@H](O)[C@@H]1OP(=O)(O)O [acetoacetyl-CoA]	–	–	–	–	–	–
–	Hsd4AMN (Mycolicibacterium neoaurum ATCC 25795)	124 ± 39	0.113	19 ± 4	0.217	23 ± 7	0.169
